Measurements published in PMC11698047, “The dual Ras-association domains of Drosophila Canoe have differential roles in linking cell junctions to the cytoskeleton during morphogenesis” (Journal of Cell Science, 2024).
“And” between values parts separate entries of the source, which are not always exact repeats. Identical values can stand only once.

B1: Drosophila melanogaster GTPase Rap1G12V (amino acids 1-180), GMPPNP-loaded (enzyme, UniProt P08645 1-180, looked up)
chain: MREYKIVVLGSVGVGKSALTVQFVQCIFVEKYDPTIEDSYRKQVEVDGQQCMLEILDTAGTEQFTAMRDLYMKNGQGFVLVYSITAQSTFNDLQDLREQILRVKDTDDVPMVLVGNKCDLEEERVVGKELGKNLATQFNCAFMETSAKAKVNVNDIFYDLVRQINKKSPEKKQKKPKKSL
notes: Rap1 GTPase, Drosophila melanogaster, amino acids 1-180, constitutively active G12V mutant; Loaded with the non-hydrolysable nucleotide GMPPNP and Mg2+ (formula mass 21.0 kDa); Cloned NdeI/EcoRI in pET28; a few vector residues probably remain at the N-terminus after thrombin cleavage (surmised); also called Rap1-GMPPNP; Rap1G12V-GMPPNP; source: E. coli BL21 DE3 pLysS, purified (Ni-NTA, thrombin …)
B2: Drosophila melanogaster Canoe RA2 domain (amino acids 222-350, including the αN helix), with His-tag (domain or fragment, UniProt Q24279 222-350, looked up)
chain: TRSISNPEAVMRRRRQQKLEKKLQQFRSRDGGPDTGGTLKIYGESLCQDVPYKTLLLSIRDCAQAVVREMLTKYGLEKADPLHYCLVQVNSDGTEYILDDDECPLSILMNHPTSRGSIMFHVRRRPADS
notes: Canoe (Cno), Drosophila melanogaster, RA2 domain with its N-terminal αN helix, amino acids 222-350; Cloned NdeI/EcoRI in pET28; also called Cno RA2; RA2 with His-tag; source: E. coli BL21 DE3 pLysS, purified (Ni-NTA, without thrombin treatment); not shown: His6, N-terminal, kept
B3: Drosophila melanogaster Canoe RA1 domain (amino acids 1-137, including the αN helix) (domain or fragment, UniProt Q24279 1-137, looked up)
chain: MSHDKKMLDREAVRSVIQQWNANRLDLFALSEPDENLLFHGVMRFYFQDAGQKVATKCIRVASDATVTDVIDTLIEKFRPDMRMLSVPNYALYEVHANGEERRLNADEKPLLVQLNWHIDDREGRFLLKNIDQKTTP
notes: Canoe (Cno), Drosophila melanogaster, RA1 domain with its N-terminal αN helix, amino acids 1-137; The methods say that some RA1 preparations were purified without thrombin treatment; also called Cno RA1; source: E. coli BL21 DE3 pLysS, purified (Ni-NTA, thrombin cleavage, benzamidine sepharose, second Ni-NTA); not shown: His6, N-terminal, cleaved

Experiments:
Conditions in all cases: both partners purified
[1] = molecular target: B3; test: SEC-MALS; 100 µl of individual proteins (200 µM) or RA domain-Rap1G12V-GMPPNP complexes (200 µM complex) on Superdex 200, 0.5 ml/min, buffer C (25 mM HEPES-NaOH pH 7.5, 100 mM NaCl, 5 mM MgCl2, 0.1% β-ME) with 0.2 g/l sodium azide; in duplicate
[2] = molecular target: B2; test: ITC; GMPPNP-loaded Rap1G12V (150-670 µM for RA1; 650-1200 µM for RA2) injected into the cell with RA1 (20-50 µM) or RA2 (42-80 µM); 25°C, buffer C (25 mM HEPES-NaOH pH 7.5, 100 mM NaCl, 5 mM MgCl2, 0.1% β-ME); one-site binding model
[3] = molecular target: B3; test: as above
[4] = molecular target: B1; test: as above

Binder	stoichiometry N [1]	dH [2]	stoichiometry N [2]	dH [3]	stoichiometry N [3]	Kd [4]
B1	1	-3.07 kcal/mol and -2.18 kcal/mol and -2.72 kcal/mol	0.755 and 0.73 and 0.63	-4.38 kcal/mol and -4.79 kcal/mol	0.717	
B2						8.8 µM and 7.9 µM and 8.7 µM
B3						4.5 µM and 5.9 µM
